Usually EC50 (read off the curve) stands for the concentration giving half of the maximal effect. For orientation: IC50 means the concentration that gives 50% inhibition. What is called Kd is the equilibrium constant for the complex coming apart. As a reminder, the koff is a measure of how fast the partners let go of each other. High values mean fast dissociation, low ones slow dissociation. Usually kon stands for a measure of how fast the partners come together. Read a high kon as fast association.

Read-outs that look alike come from different tables or passages of the source. Where no end group is shown, it is not given here. [ ]: non-standard residue; d: D form. Aib = CC(C)(N)C(=O)O

Series [1] has as its target recombinant gp41 (Example 2 ELISA) (HIV-1) (UniProt P04578). In words: ELISA, Fab titrated on immobilized gp41. A general note: An ELISA detects its analyte on a solid surface through an enzyme-linked reagent.
Series [2] has the same target. Briefly: direct ELISA, antigen coated on wells, 4E10 at 5 µg/ml.
Series [3] has as its target peptide 33-1, NWFDITN-Aib-LWRR-NH2. In words: surface plasmon resonance and ELISA. A general note: Surface plasmon resonance follows binding to a sensor surface in real time, without labels.
In series [4] the target is peptide 104-2, NWFc(CITO)WLWKKKK-NH2. In words: surface plasmon resonance and ELISA.
The target in series [5] is peptide 94-1, …-NH2. In words: surface plasmon resonance and ELISA.
In series [6] the target is peptide 104-2, NWFc(CITO)WLWKKKK-NH2. In words: surface plasmon resonance and ELISA (Table 7).
In series [7] the target is peptide 94-1, …-NH2. Briefly: surface plasmon resonance and ELISA (Table 7).
For series [8], the target named is recombinant IgG1(kappa) 4E10. In words: competitive ELISA: gp41 against biotinylated …(biotin)-NH2 for IgG 4E10.
Chain of recombinant IgG1(kappa) 4E10 (heavy, as listed by the source): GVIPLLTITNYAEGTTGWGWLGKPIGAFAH
The target of series [9] is recombinant IgG1(kappa) 4E10. Briefly: competitive ELISA; converted by the filing on the assumption of 25 kDa and a monomer.
In series [10] the target is IgG 4E10. In words: Competitive ELISA (IC50): peptide competes with biotinylated 4E10-epitope peptide for IgG 4E10. The format is binding, human. Here is the method: IC50, were determined by competitive ELISA using a constant concentration of biotinylated peptide and IgG with a variable concentration of gp41 peptides. Microwells were coated overnight at 4° C. with 50 μl PBS containing neutravidin (Pierce; 4 μg/ml). […] A mixture of a biotinylated 4E10-epitope peptide, […](biotin)-NH2 (SEQ ID NO: 88) (20 nM), IgG 4E10 (0.2 nM), and the competing peptide analog (3-fold dilution series starting at 10 μM) in 0.4% non-fat dry milk, 0.02% Tween and PBS was incubated in a separate 96-well plate at 37° C. for 2 hours. After washing the blocked plate, the mixture of 4E10, biotinylated peptide and competing peptide was added to the wells. After 20 minutes at room temperature, the Wells were washed five times, and a 1:500 dilution of goat anti-human IgG F(ab′)2 HRP conjugate (Pierce) was added. Following incubation at RT for 40 minutes, the wells were washed five times, and developed by adding 50 μl of TMB solution (Pierce) according to the manufacturer's instructions. After ˜20 minutes, wells containing TMB solution were stopped by adding 50 μl of H2SO4 (2M) and the O.D. at 450 nm was read on a microplate reader (Molecular Devices). The concentration of competitor peptide corresponding to a half-maximal signal (IC50) was determined by interpolation of the resulting binding curve. Each peptide competitor was tested in duplicate in at least two separate experiments.
IC50s were determined by competitive ELISA using a constant concentration of biotinylated peptide and IgG with a variable concentration of gp41 peptides. Microwells were coated overnight at 4° C. with 50 μl PBS containing neutravidin (Pierce; 4 μg/ml). […] Meanwhile, a mixture of a biotinylated 4E10-peptide epitope, […](biotin)-NH2 (SEQ ID NO: 88), (20 nM), IgG 4E10 (0.2 nM), and the competing peptide analogue (3-fold dilution series starting at 10 μM) in 0.4% NFDM, 0.02% Tween and PBS was incubated in a separate 96-well plate at 37° C. for 2 h. After washing the blocked plate, the mixture of 4E10, biotinylated peptide and competing peptide was added to the wells. After 20 min at room temperature, the wells were washed five times, and a 1:500 dilution of goat anti-human IgG F(ab′)2 HRP conjugate (Pierce) was added. Following incubation at RT for 40 min, the wells were washed five times, and developed by adding 50 μl of H2SO4 (2 M), and the O.D. at 450 nm was read on a microplate reader (Molecular Devices). The concentration of competitor peptide corresponding to a half-maximal signal (IC50) was determined by interpolation of the resulting binding curve. Each peptide competitor was tested in duplicate in at least two separate experiments.

The nature of series [11]: Circular dichroism spectroscopy of free peptides in solution (helicity). To be noted: FIG. 48. It is filed as physicochemical. On the procedure: To determine whether the imposed constraints increased the helicity of the peptides, each one was analyzed in solution using circular dichroism (CD) spectroscopy (FIG. 48). An Aviv spectropolarimeter Model 203-02 was used, with cells of 0.1 cm in length, a wavelength step of 0.5 nm and a bandwidth of 1.0 nm. One to three scans were reported. The exact peptide concentrations were determined by UV measurements at 280 nm on a Gison UV detector, model 116.

For series [12], the target named is recombinant IgG1(kappa) 4E10. Briefly: competitive ELISA for IgG 4E10.
The target in series [13] is Fab 4E10. In words: SPR (Biacore 2000), Fab 4E10 on CM5 chip, peptide in flow.
Chain of Fab 4E10 (heavy, as listed by the source): as above
The target of series [14] is Fab 4E10. The series is described as above. The source holds these as a separate data set.
For series [15], the target named is recombinant IgG1(kappa) 4E10. Briefly: cell-based or functional assay.
Series [16] concerns the target recombinant IgG1(kappa) 4E10. Briefly: competitive ELISA: peptide against biotinylated …(biotin)-NH2 for IgG 4E10.
In series [17] the target is recombinant IgG1(kappa) 4E10. Briefly: competitive ELISA, reference peptide of the alanine scan.
Series [18] concerns the target recombinant IgG1(kappa) 4E10. In words: competitive ELISA.
In series [19] the target is recombinant IgG1(kappa) 4E10. In words: competitive ELISA: peptide against biotinylated …(biotin)-NH2 (20 nM) for IgG 4E10 (0.2 nM).

As for Fab 2F5, the EC50 (read off the curve) in [1] worked out at 0.03 µg/mL.
On to recombinant IgG1(kappa) 4E10 (antibody), for which the fold higher affinity than for the synthetic peptide (KGND) in series [2] came out at 4 fold. Also, the fold higher affinity than for the original peptide KGND in series [3], in [4] and in series [5] was 1000 fold throughout. In addition, the fold higher affinity than for peptide 33-1 in [6] and in series [7] was 17 fold each time.
Turning to “recombinant gp41 (residues 541-682 of HxB2; Viral Therapeutics, Inc.) (from UniProt P04578 541-682)”, the half-inhibitory concentration (IC50) in [8] was 0.25 µg/mL; in [9], 10 nM.
Regarding NWFDITNWLWYIKBKBKK-NH2 [Peptide 119], the “IC50 (4E10 binding, competitive ELISA)” value in [10] is “the same IC50”. The half-maximal inhibitory concentration (IC50) in series [10] (Table 6, constrained analogs, 4E10 binding, read-out: IC50) was determined as 10 nM. In addition, the “helicity in solution by CD” value in series [11] is given as “more helical 94-1”.

B1: peptide 94-1, …-NH2 (peptide)
peptide: NWFDITNWLWYIKKKK-NH2
With B1, in series [12], the fold improvement of IC50 compared to KGND was above 1000 fold and the fold improvement of IC50 over the starting peptide (84-1) stood at 4 fold. For the same molecule, in series [13], the dissociation constant Kd stood at 20 nM, the koff turned out to be 0.0138 s⁻¹ and the on-rate constant (kon) is 691000 M⁻¹ s⁻¹. Moreover, the Kd in [14] was determined as 18 nM. Also, in series [15], the inhibition of 4E10 neutralization of replication competent HIV-1 SF162 and JR-CSF (TZM-bl cells, luciferase) was found to be 30 µg/mL. Besides, the IC50 in series [16] worked out at 10 nM.

B2: peptide …-NH2 (peptide)
peptide: SLWNWFDITNWLWYIKKKK-NH2
Consider B2, for which, in series [17], the IC50 is 10 nM.

B3: peptide 33-1, NWFDITN-Aib-LWRR-NH2 (peptide)
peptide: NWFDITN[Aib]LWRR-NH2
modifications: N-terminus assumed
SMILES: CC[C@H](C)[C@H](NC(=O)[C@H](CC(=O)O)NC(=O)[C@H](Cc1ccccc1)NC(=O)[C@H](Cc1c[nH]c2ccccc12)NC(=O)[C@@H](N)CC(N)=O)C(=O)N[C@H](C(=O)N[C@@H](CC(N)=O)C(=O)NC(C)(C)C(=O)N[C@@H](CC(C)C)C(=O)N[C@@H](Cc1c[nH]c2ccccc12)C(=O)N[C@@H](CCCNC(=N)N)C(=O)N[C@@H](CCCNC(=N)N)C(N)=O)[C@@H](C)O
As to B3, in series [13], the Kd came out at 302 nM, the koff was 0.13 s⁻¹ and the on-rate (kon) worked out at 431000 M⁻¹ s⁻¹. For the same molecule, the fold increase of binding affinity over its control peptide 44-1 in series [18] was 3 fold. Also, the IC50 in series [16] is 100 to 400 nM.

B4: peptide 84-1, …-NH2 (peptide)
peptide: NWFDITNWLWKKKK-NH2
Turning to B4, the dissociation constant Kd in series [14] came to 100 nM. Also, the IC50 in series [19] was found to be 40 nM.
